Key:
[1] = test system: lateral root primordia (LRP); assay: LRP progression after gravitropic stimulus; assay type: in vivo, Arabidopsis thaliana; details: by 48 hpg
Description: (A) Lateral root development in wild type (WT) plants, plants having a severe knock down of PDLP5 (pdlp5-1), and plants overexpressing PDLP5 (PDLPOE) expressing DR5:GUS. Arrowheads indicate tertiary roots. (B) Quantification of total lateral root numbers (both emerged and unemerged secondary [2°], tertiary [3°], and quaternary [4°] roots). n≧30 per seedling set. Bars, standard deviation. Stars, significance determined by student T-test (P<0.01). (C) A diagram depicting several stages of LRP emergence. (D) Percent distribution of LRP stages, recorded at root bend at indicated time points following gravistimulation at 3 dpg. n≧20 seedlings per set. […]
GUS solution (100 mM sodium phosphate buffer, pH 7.0, 10 mM EDTA, 0.5 mM each potassium ferrocyanide and potassium ferricyanide, 1.24 mM X-Gluc, and 0.1% Triton X-100) was vacuum-infiltrated into plant tissue for five minutes, then removed from vacuum and incubated in 37° C. for 3 to 12 hrs, followed by a series of ethanol washes. […] LRP were quantified by counting both the emerged LR and unemerged LR, as determined by DRS::GUS staining of the primordia, under a dissecting microscope (1.2× magnification). LRP stages were determined by examining ethanol-cleared, GUS-stained tissue using 40× water lens.

Arabidopsis thaliana [2] = assay: Vegetative growth, flowering and seed yield of plants; assay type: in vivo; details: 22-20° C., 16/8 hours light/darkness
Description: Wild type (WT) plants, plants overexpressing […]), and plants with a severe knock down of […] used as comparisons. (a) Whole plants at 10, 14, and 18 days post germination (dpg). Plants were grown at 22-20° C. with 50% humidity and with 16/8 hours light/darkness. (b) Leaves at 3 weeks post germination. Plants were grown at 24-22° C. with 70% humidity and with 16/8 hours light/darkness. […] Wild type (WT) plants, plants overexpressing PDLP5 (OX), and plants with a severe knock down of PDLP5 (KO) were used as comparisons. […] Seeds were germinated on plates, were transferred to soil after 1 week, and plants were grown at 22-20° C. with 16/8 hours light/darkness. […] Wild type (WT) plants and plants overexpressing […]) were used as comparisons. Plants were grown at 24-22° C. with 70% humidity and with 16/8 hours light/darkness. […] The sequence of the PCR product was confirmed followed by transformation of Top10 E. coli competent cells. […] Agrobacteria were transformed with the […]5 clone.

[3] = test system: Nicotiana benthamiana leaves; assay: Transient expression via Agrobacteria-infiltration, extent of viral movement; assay type: in vivo; details: transient expression in Nicotiana benthamiana leaves
Description: (a) Schematics of PDLP5-m5, PDLP5-C, and PDLP5-2C mutants as created by overlapping PCR. (b) Transient expression of mutants in Nicotiana benthamiana leaves.
We also created mutants altering just two cysteines (“CC”, residues 288 and 289 of the C-terminal tail region) or a single cysteine (“C”, residue 298 of the C-terminal tail region) residues to A1a. The phenotypes of these partial mutants, as well as the PDLP5-OX, pldp5-1 and PDLP5-m5, were tested in transient expression in Nicotiana benthamiana leaves via Agrobacteria-infiltration, targeting the extent of viral movement for comparison.

Arabidopsis thaliana [4] = assay: Primary and lateral root quantification in seedlings; assay type: in vivo
Description: (A) Lateral root development in wild type (WT) plants, plants having a severe knock down of PDLP5 (pdlp5-1), and plants overexpressing PDLP5 (PDLPOE) expressing DR5:GUS. Arrowheads indicate tertiary roots. (B) Quantification of total lateral root numbers (both emerged and unemerged secondary [2°], tertiary [3°], and quaternary [4°] roots). n≧30 per seedling set. Bars, standard deviation. Stars, significance determined by student T-test (P<0.01). (C) A diagram depicting several stages of LRP emergence. (D) Percent distribution of LRP stages, recorded at root bend at indicated time points following gravistimulation at 3 dpg. n≧20 seedlings per set.
(A-C) GUS-stained 11-day-old seedlings expressing DR5:GUS in wild type (WT) Col-0 plants (A), plants having a severe knock down of PDLP5 (pdlp5-1) (B), and plants overexpressing PDLP5 (PDLPOE) (C). Size bar in (A), common to (B) and (C). (D) Measurement of primary root length in 10-day-old wild type (WT) seedlings, seedlings having a severe knock down of PDLP5 (pdlp5-1), and seedlings overexpressing PDLP5 (PDLPOE). n=30 seedling per line. (E) Measurement of % emerged lateral root (LR) of total secondary roots in 10-day-old WT, pdlp5-1, and PDLP5OE seedlings. n=30 seedling per line. (F) Measurement of average secondary root length per seedling in 7-day-old WT and pdlp5-1. n=28 seedlings per line.
To investigate the importance of PD function during lateral root emergence, PDLP5 loss-of-function and over-expressing lines were characterized. […] Furthermore, this reduction in secondary root development was reiterated in later stages of root branching, with PDLP5OE showing reduced tertiary root occurrence (26% and 50% of WT at 8 and 11 day post germination [dpg], respectively). […] Lateral roots were 1.4-fold longer on average in pdlp5-1 than WT (FIG. 17F) at 7 dpg and later. […] Given the overall increase in average secondary root length in pdlp5-1, we conclude that the higher occurrence of tertiary and quaternary root formation can be attributed to an accelerated secondary root growth.
All Arabidopsis thaliana genotypes were in the Col-0 genetic background, except for shy2-2 in Ler, and iaa28-1 in Ws. Seedlings were grown vertically in 0.5X MS agar under a continuous light at 22° C. Plants in soil were grown in a 16 hr light, 22° C. All the genetic crosses (see Table 5) were selfed, and genotyped to identify homozygous mutations when necessary. Genomic DNA was isolated from segregating F2 plants followed by PCR analyses using gene-specific primers (see Table 6).
GUS solution (100 mM sodium phosphate buffer, pH 7.0, 10 mM EDTA, 0.5 mM each potassium ferrocyanide and potassium ferricyanide, 1.24 mM X-Gluc, and 0.1% Triton X-100) was vacuum-infiltrated into plant tissue for five minutes, then removed from vacuum and incubated in 37° C. for 3 to 12 hrs, followed by a series of ethanol washes. Stained tissues were imaged using Zeiss Axioskop 2 microscope. LRP were quantified by counting both the emerged LR and unemerged LR, as determined by DRS::GUS staining of the primordia, under a dissecting microscope (1.2× magnification). LRP stages were determined by examining ethanol-cleared, GUS-stained tissue using 40× water lens.

plasmodesmata (PD) = details: Arabidopsis plants; cited from earlier work

B1: PDLP5OE: Wild-type A. thaliana PDLP5 protein (SEQ ID NO:4) constitutively overexpressed in plants under the 35S promoter (protein, listed as Arabidopsis thaliana)
chain: MIKTKTTSLLCFLLTAVILMNPSSSSPTDNYIYAVCSPAKFSPSSGYETNLNSLLSSFVTSTAQTRYANFTVPTGKPEPTVTVYGIYQCRGDLDPTACSTCVSSAVAQVGALCSNSYSGFLQMENCLIRYDNKSFLGVQDKTLILNKCGQPMEFNDQDALTKASDVIGSLGTGDGSYRTGGNGNVQGVAQCSGDLSTSQCQDCLSDAIGRLKSDCGMAQGGYVYLSKCYARFSVGGSHARQTPGPNFGHEGEKGNKDDNGVGKTLAIIIGIVTLIILLVVFLAFVGKCCRKLQDEKWCK
LRP emergence [1]: none had yet emerged | rosette diameter (Arabidopsis thaliana [2]): reduced rosette diameter | extent of viral movement [3]: delay in viral movement | secondary roots, % of WT number (Arabidopsis thaliana [4]; 8 dpg): 66% | tertiary root occurrence, % of WT (Arabidopsis thaliana [4]; 8 dpg): 26% | emerged LRP among total secondary roots, % of that found in WT (Arabidopsis thaliana [4]; 10-day-old seedlings): 50% | secondary roots, % of WT number (Arabidopsis thaliana [4]; 11 dpg): 77% | tertiary root occurrence, % of WT (Arabidopsis thaliana [4]; 11 dpg): 50% | reduction in the primary root length (Arabidopsis thaliana [4]; ten-day-old seedlings, compared to WT): approximately 30% | movement between cells reduced by (plasmodesmata (PD)): 70%
